Measurements published in patent US20090053213A1 (MorphoSys, published 2009).
Where a chain is given by its changes, count along the chain named.

Assays:
rat GM-CSF [1] = biological target: T1, rat GM-CSF (rat, UniProt P48750 18-144); assay: solution equilibrium titration (SET), Fab with rat GM-CSF (Peprotech) as analyte in solution
T1 construct: Bought recombinant protein; also called rat-GM-CSF (Peprotech); rat recombinant GM-CSF
T1 sequence (looked up): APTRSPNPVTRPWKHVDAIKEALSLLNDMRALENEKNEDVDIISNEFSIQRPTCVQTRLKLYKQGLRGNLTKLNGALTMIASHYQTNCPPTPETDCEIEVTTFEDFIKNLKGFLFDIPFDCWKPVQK

[2] = biological target: macaca mulatta (rhesus) GM-CSF (Macaca mulatta (rhesus)); assay: cell-based or functional assay
rat GM-CSF [3] = biological target: T1, rat GM-CSF; assay: solution equilibrium titration (SET), IgG1 with rat GM-CSF (Peprotech) as analyte in solution
human GM-CSF [4] = biological target: T2, human GM-CSF (human, UniProt P04141 18-144); assay: cell-based or functional assay
human GM-CSF [5] = biological target: T2, human GM-CSF; assay: cell-based or functional assay; remark: listed apart in the source
rat GM-CSF [6] = biological target: T1, rat GM-CSF; assay: SPR (Biacore 3000), Fab captured on anti-F(ab)2, rat GM-CSF as analyte
Procedure: This was performed in a capture set-up by surface plasmon resonance (Biacore 3000, Uppsala, Sweden).
CM5 chips (Biacore, Sweden) were coated with 5000-6000 RU anti-F(ab)₂ (Dianova, Affinipure F(ab)₂ Fragment Goat Anti-Human IgG, F(ab)₂ Fragment specific); 80 μg/ml 10 mM acetate buffer, pH4 on all 4 flow cells, using standard EDC-NHS amine coupling chemistry. […] After capturing of the specific Fab, buffer was injected, to determine the dissociation of anti-Fab/Fab interaction. In a following cycle, the analyte growth factor was injected (20 μl, flow rate 20 μl/min) at a concentration range between 15 and 2000 nM for the determination of the specific signal. Afterwards the achieved buffer sensogram was manually subtracted from the specific one. After each cycle, the flow cells were regenerated with 100 mM HCl (5 μl).

human GM-CSF [7] = biological target: T2, human GM-CSF; assay: solution equilibrium titration (SET, ECL/BioVeris), Fab with human GM-CSF (Leucomax) in solution
human GM-CSF [8] = biological target: T2, human GM-CSF; assay: SPR (Biacore), Fab over immobilized recombinant human GM-CSF (Peprotech), F1 chip; affinity estimated from off-rates
Procedure: A respective amount of HSA was immobilized on the reference flow cell. […] Fab was applied in concentration series of 6.3-200 nM at a flow rate of 20 μl/min.

human GM-CSF [9] = biological target: T2, human GM-CSF; assay: FACS receptor inhibition assay: inhibition of binding of 0.5 µg/ml biotinylated GM-CSF to GM-CSF receptor alpha on CHO-GMRa#11 cells
Procedure: (§1) All stainings were performed in round bottom 96-well culture plates (Nalge Nunc) with 1-5×10⁵ cells per well. […] Cells were then washed once with 150 μl FACS buffer/well and taken up in 100 μl phycoerythrin-labeled streptavidin (BD Biosciences Pharmingen) which has been diluted 1:400 in FACS buffer. […] IC₅₀ values were determined from the dose response curves obtained using GraphPad Prism v3.03 software applying a non-linear regression curve fit.
(§2) IC₅₀ values were determined from the dose response curves obtained using GraphPad Prism v3.03 software applying a non-linear regression curve fit.

human GM-CSF [10] = biological target: T2, human GM-CSF; assay: FACS receptor inhibition assay: antibody pre-incubated with 0.5 µg/ml biotinylated GM-CSF, binding to GM-CSF receptor alpha on CHO-GMRa#11 cells
Procedure: as §1, §2

T2 sequence (P04141 18-144): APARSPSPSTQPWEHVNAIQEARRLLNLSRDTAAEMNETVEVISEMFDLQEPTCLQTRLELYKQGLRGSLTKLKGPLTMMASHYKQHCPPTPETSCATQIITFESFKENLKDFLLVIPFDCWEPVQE

B1: MOR04357 Fab (Fab, V domains shown)
VH: QVQLVESGGGLVQPGGSLRLSCAASGFTFSSYWMNWVRQAPGKGLEWVSGIENKYAGGATYYAASVKGRFTISRDNSKNTLYLQMNSLRAEDTAVYYCARGFGTDFWGQGTLVTVSS
VL: DIELTQPPSVSVAPGQTARISCSGDSIGKKYAYWYQQKPGQAPVLVIYKKRPSGIPERFSGSNSGNTATLTISGTQAEDEADYYCSAWGDKGMVFGGGTKLTVLG
notes: X-cloned Fab (VH of MOR04252 x VL of MOR04302) with FLAG and 6xHis tags; also called Fab MOR04357
Kd (rat GM-CSF [1]): 1 nM

B2: MOR04357 IgG1 (antibody, V domains shown)
VH: B1 VH
VL: B1 VL
notes: expressed in HKB11 cells; also called IgG1 MOR04357
IC50 (pM) in TF-1 proliferation assay, macaca GM-CSF (HEK293) [2]: 15 pM
Kd (rat GM-CSF [3]): 0.13 nM

B3: MOR03929 Fab (Fab, V domains shown)
VH: QVQLVESGGGLVQPGGSLRLSCAASGFTFSSYWMNWVRQAPGKGLEWVSGISYSGSETYYADSVKGRFTISRDNSKNTLYLQMNSLRAEDTAVYYCARGFGTDFWGQGTLVTVSS
VL: B1 VL with A87S, G89D, D90S, K91T, M93L
notes: Parental HuCAL GOLD Fab with C-terminal FLAG and 6xHis tags
inhibition of TF1 cell proliferation at 2 µM Fab, human GM-CSF (Leucomax) 0.25 ng/ml (human GM-CSF [4]): > 50%
IC50 (pM) in TF-1 proliferation assay, human GM-CSF 0.25 ng/ml (human GM-CSF [5]): > 200000 pM
binding result (rat GM-CSF [6]): binds
Kd (human GM-CSF [7]): 2 nM
Kd (human GM-CSF [8]): 4.26 nM
% inhibition at 5 µg/ml antibody (human GM-CSF [9]): ~60%
IC50 (human GM-CSF [10]): 35 nM
